Reference: the DeepSol protein solubility set

Assay: soluble on expression in E. coli; label from the status in PepcDB or PDB records

Sequence | soluble on expression in E. coli
MSSSHKSWNSIYEFTVKDINGVDVSLEKYRGHVCLIVNVACKCGATDKNYRQLQEMHTRLVGKGLRILAFPCNQFGGQEPWAEAEIKKFVTEKYGVQFDMFSKIKVNGSDADDLYKFLKSRQHGTLTNNIKWNFSKFLVDRQGQPVKRYSPTTAPYDIEGDIMELLEKK | soluble
MDAAKVRSEFDEKMMRYALELADKAEALGEIPVGAVLVDDARNIIGEGWNLSIVQSDPTAHAEIIALRNGAKNIQNYRLLNSTLYVTLEPCTMCAGAILHSRIKRLVFGASDYKTGAIGSRFHFFDDYKMNHTLEVTSGVLAEECSQKLSTFFQKRREEKKIEKALLKSLSDKLEHHHHHH | not soluble
MGSDKIHHHHHHMHNEIVTGNVLPFNIFEKADSKLLAWIRDVSVVREITTSCRLIEEGSTPDGLFVVESGAITVCTKQADGGSLSLASLKVGNLVGEMSWLEERPAVASIDAGPGSRLLQIPREALESINQSEAFICHLLYRLIAEKLALQVQGQNIWVHRIAGTDQEPLRKVLVLFAELEEKDVAWIARSGKFKRLVAGDVLLQEGDNVPGLYLLLAGEARISITENGSWQSVGSSRRGELLGELTMLNPQAAGATANVDTVTGLELLVLDKEELSMTLNADPRLAKRFYKGIARMLSQRSRDQLLSRGFAEASRIAEELIDNEQLGLDQLSAISSAGLRFDWLCRQFQDKEG | not soluble
MASPISHSSHENASGKYGYGDESQHGKNFHQKAEHSGHEAKEKGYSQDGKAADHDALHKDAAEHKQNKEAHQSGSGNKYVDDASNYNKDVKTKTFGFFDYRYVQPQYHMEQYHTDEKHANKYAGDEHNAGQQHKDNGGYHADGHQGYDKAQEKHGASHTNYGNEDAGHKSKYDDNEGKYGDHTDGYYNKGYDNYGQGHDSESYQPSYYQPKPKYYGGHQSHYQPSARHSSPYQGDQYYGYEAPHY | not soluble
MSQPVAFVTGCSSGIGRALADAFQRAGYRVWASARKEDDVRALAEAGFQAVQLDVNDAAALARLAEELGVEAAGLDVLVNNAGYGAMGPLLDGGVEAMRRQFETNVFAVVGVTRALFPLLRRKSGLVVNVGSVSGVLVTPFAGAYCASKAAVHALSDALRLELAPFGVEVLEVQPGAIASNFGASASREMDSVVDERSPWWPLRRQIQARAAASQDNPTSAEDFARQLLAAVQRRPRPPLVRIGNGSRALPALARWLPRGLLERLLKKRFGLDTRL | not soluble
MGSDKIHHHHHHMPAKTLYCATLASLNGLSDNRNATGISFIFQGGAVEEMQKVLVNEKGMAWITCEKCSHTSGIDVSRLSDRAPFIRYKCVKCDAEFDVACEFRKSYRKEVHLNGVFIQQQPREDYAGRIEILDISKTGVRFKTRVKFDFKPGYLLKLSFSLDDAKKTNINQTVEVKWVNGQLVGGEFRNQDHWTSQQLGFYFMS | not soluble
MRKYAAIALCTSAILAGCNTSNVSQEPKKEKKVQEVAIQKEALQEQGKISYTPITHESTNTSIHITDLKDSLNEVQYKIWRTADGKERAKSFSSKEKEKQFTIPFDIKEFEGKRGEFQIEATGMKEDGKTIPLTKSIITFEQKVPVLMYHAIDDYHGQGIKDLFVSPANFEAQMKHLKDNGYTLLTFERWGDINKVNKPIFVTFDDGMKNNMNAFRVLQKLKDDTFKPAATEYMIVDNVDVEGALSTSEIKEMVDSGIFSVQSHTATHADLPKITNYEEELKGSKEKLEKITGKPVIAIAYPFGHVDDKVVTETKKYYQFATTTKPGQFITKGEPDELLKMKRVRIHHTTTVEQFASSIK | not soluble
MAIVSFKHKGLKLFYTTGSTKAIRPDHVKKLRVILTALTSATCPEMLKAPAFKMHPLKGELTGYYSIWVNGNWRVTFRFIGTDVELVDYQDYH | not soluble
MGSDKIHHHHHHMAFTPFPPRQPTASARLPLTLMTLDDWALATITGADSEKYMQGQVTADVSQMAEDQHLLAAHCDAKGKMWSNLRLFRDGDGFAWIERRSVREPQLTELKKYAVFSKVTIAPDDERVLLGVAGFQARAALANLFSELPSKEKQVVKEGATTLLWFEHPAERFLIVTDEATANMLTDKLRGEAELNNSQQWLALNIEAGFPVIDAANSGQFIPQATNLQALGGISFKKGCYTGQEMVARAKFRGANKRALWLLAGSASRLPEAGEDLELKMGENWRRTGTVLAAVKLEDGQVVVQVVMNNDMEPDSIFRVRDDANTLHIEPLPYSLEE | soluble
